Biological target: T1, OX40 receptor on mouse CD4+ T-cells (mouse, UniProt P47741 20-272)
T1 sequence (looked up): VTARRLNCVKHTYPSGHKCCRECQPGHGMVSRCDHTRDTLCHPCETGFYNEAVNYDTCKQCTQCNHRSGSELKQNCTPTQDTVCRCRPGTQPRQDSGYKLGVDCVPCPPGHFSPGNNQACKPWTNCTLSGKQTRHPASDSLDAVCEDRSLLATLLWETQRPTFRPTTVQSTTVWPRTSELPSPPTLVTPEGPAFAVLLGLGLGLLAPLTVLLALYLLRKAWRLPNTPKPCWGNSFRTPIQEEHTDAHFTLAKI
Test: cell-based or functional assay

B1: murine OX40L polypeptide expressed on the surface of B16F10 cells treated with mOX40L_miR-122 mRNA (ligand)
chain: MEGEGVQPLDENLENGSRPRFKWKKTLRLVVSGIKGAGMLLCFIYVCLQLSSSPAKDPPIQRLRGAVTRCEDGQLFISSYKNEYQTMEVQNNSVVIKCDGLYIIYLKGSFFQEVKIDLHFREDHNPISIPMLNDGRRIVFTVVASLAFKDKVYLTVNAPDTLCEHLQINDGELIVVQLTPGYCAPEGSYHSTVNQVPL
- mouse IL-2 production by CD4+ T-cells co-cultured with OX40L-expressing B16F10 cells, fold over control (mock treated or non-translated mRNA): ~2 fold

Source: patent publication US11344504 (MODERNATX, dated 2022)
